Columns and labels:
[1] = target: fibrillin microfibrils purified from bovine ciliary zonules (bovine (endogenous in ciliary zonule)); assay: cryo-EM structure; native bovine ciliary zonule microfibrils in 20 mM Tris-HCl, 150 mM NaCl, 2 mM CaCl2 pH 7.4; single-particle reconstruction of bead (9.7 Å) and arm (18.3 Å) regions, C2 symmetry imposed
[2] = target: fibrillin microfibrils purified from bovine ciliary zonules (bovine (endogenous in ciliary zonule)); assay: STEM mass mapping; full-length LTBP-1 incubated with bovine microfibrils at a 2:1 molar ratio for 4 h at 4 °C; mass per microfibril repeat with and without LTBP-1

Substance	fibrillin monomers per microfibril repeat (monomers per repeat) [1]	stoichiometry N (LTBP-1 molecules per microfibril repeat) [2]
fibrillin microfibrils purified from bovine ciliary zonules (complex)	8	–
full-length human LTBP-1S (short splice form of latent TGFβ-binding protein-1) (natural protein)	–	2

— paper PMC10191836
